From the DeepSol protein solubility set

Assay: soluble on expression in E. coli; label from the status in PepcDB or PDB records

Sequence | soluble on expression in E. coli
MYLQDRSPYMENSGSSNDRNSGKTEYQLTLIGALKKEIEIARRLDPEKLAAEIKKTGFSCQNCGKCCKRAFGDNRVVLTPQEIEKIQKYTDLSKLEVAGPLIPDISCPEEAGEGEEDRVAENSSIMPEIDEKKTSEPFRTPELLKEDIDPDGNIHAYGWMLRRKRNGDCVFLEKDTNRCRIYPVRPMLCSTYPFYIEGLKLYTCECEGLGVHISAEESRKLAGSLLSRYVSELEDTLAMYEKYEDFERTEKGHEIAKNNLEKGTCIYIVHDSRGITKIIDLEHHHHHH | soluble
MSLKKWFTILTFVLTAFLVTRTAIAETSPYVLMQQAADKLFSDIQANQSKIKQDPNYLRTIVRNDLLPYVNLEYAGSKVLGSYYKSTSAEQREKFFKTFGELIEQKYAQALTNYSNQKIQIESEKELGDNNFINIRVNIIQANGVAPILLYFKWRKGNKSGEWKVYDMVGAGVSMLEDTIKNWVGILNKQGIDTLITKMQQSASQPIIFNQEGGSHHHHHH | soluble
MSQQPGVLPENMKRYMGRDAQRMNILAGRIIAETVRSTLGPKGMDKMLVDDLGDVVVTNDGVTILREMSVEHPAAKMLIEVAKTQEKEVGDGTTTAVVVAGELLRKAEELLDQNVHPTIVVKGYQAAAQKAQELLKTIACEVGAQDKEILTKIAMTSITGKGAEKAKEKLAEIIVEAVSAVVDDEGKVDKDLIKIEKKSGASIDDTELIKGVLVDKERVSAQMPKKVTDAKIALLNCAIEIKETETDAEIRITDPAKLMEFIEQEEKMLKDMVAEIKASGANVLFCQKGIDDLAQHYLAKEGIVAARRVKKSDMEKLAKATGANVITNIKDLSAQDLGDAGLVEERKISGDSMIFVEECKHPKAVTMLIRGTTEHVIEEVARAVDDAVGVVGCTIEDGRIVSGGGSTEVELSMKLREYAEGISGREQLAVRAFADALEVIPRTLAENAGLDAIEILVKVRAAHASNGNKCAGLNVFTGAVEDMCENGVVEPLRVKTQAIQSAAESTEMLLRIDDVIAAEKLRGAPDMGDMGGMPGMGGMPGMM | soluble
MGSDKIHHHHHHMFQDKYVFAQLASFLNRSKFNRIVTKYDGDKYVKHFTCWNQLLALMFGQLSNRESLRDLIVALEAHHSKCYHLGMGKNVSKSSLARANQDRDYHIFEEYAYYLVSEARQKCANHIFKLGGNVYAFDSTTIDLCLSVFWWAKFRKKKGGIKVHTLYDVETQIPAFFHITEASVHDSKVMIEIPYEPSSYYIFDRGYNNFKMLYKIHQIEAYFVVRAKKNLQYKSIQWKRRLPKNVLSDASVLLTGFYPKQYYPKPLRLVKYWDEEQEREFTFITNAMHISALQVAELYKNRWQVELFFKWLKQHLKIKRFWGTTENAVRIQIYAAICAYCLVAIIQHDMQLDRSTYEVLQILSISLTDKTHLRDLFDKTKFQNDKERFGPNGPSLFNF | not soluble
MGSDKIHHHHHHMSDITSKVSLTNVAADNTVSSEQAKDINSIGQDLGIDMMASLQQAPFDEMLIREYLLDNPDFFNRYPELLVAMRVPHAERGAVSLVERRQELLRQRVSQLEEEITSLMNIATHNEKIFKFNTELSFKMLASQDLGELRLVLSEGLKNEFGFSHVRLITVHDIDSELAKIWRHRVQSGYYFGRLTQSESKRLFGSEVGSVALTKLSDENGQVIFAIASNDPTHFHPDMDSLLFSQLRRLLDHMLPKM | not soluble
NAIKESARLPELSLWEKIKAYFFTTHHAEALECIFNLYHHQELNLTPVQVRGAYIKLRALASQGCKEQFIIESQEHADKLIIKDDNGENILSIEVECHPEAFGLAKEINKS | soluble
VFHPVECSYCHSESMMGFRYRCQQCHNYQLCQDCFWRGHAGGSHSNQHQMKEYTSW | soluble
MSLSGLPESTLRYYEQIGIIDPIARDPSSGHRVYSDKDIESLTTIACLAATGMPLESMREYLKNRFDGPEGARRQIELLDAQSLRLAANAEALRIQQAYVSLKSLYWRAIAEGHEDEANRILEENKDVIENVKKQPGKGAIAREGHHHHHH | soluble
MGSDKIHHHHHHMFRYDVISNKKNVNPHILALHHHNEKTWISSSSGGVFASLTDYALRQAGVIFGAIYDDNFVVVHRRAETQEDTLKFRGSKYVQSNLTGIYQQVKFYLQEQRFVLFSGTPCQVEGLKGYLQRSYDNLLTVDILCHGVPSPRVFHDYLNFIRQNSDFHFTGIFMKDKTFGWGYQNSRLFFGKNASQFNTVLSRLWNDIFYSHLTTRPSCHACRFTNYLRPGDITIGDFWGIEKHHPQFTDSRGISLIMLNNTKAEIVWNHIKDDFNYLESNIKECIQPNLKYPVPEPVNKATFWQDYASMPFFQIMNKYYRITHQDLLKNRFYMILLTLKKRFT | not soluble
MIGYFIITGFAAATLALSTCNLKKVRKPPPATPAKPPAPQKTLKVAPRAAPPRKKKEIFLEEHTPPSTDTDEVSTIPPAEQIRIVENHRRRIGVRPRAGNRVYKKTPSSELVKVENKKSVEKNCKVVKTESGEAEACEKKEDKRNVEKNKKKEKESKEKSKNCYEKKELKKNGSESYAYKKYNKQKNEHIEILVKKTVLRQIRF | not soluble
MTTVSNIHHASKPRLNTLLVTARDSPYDTTLPARTPVDFCRPGSQWRVMDIDLVLAPVDGSDQSERAAEYAIAVAERYDADLHLLFVIDERLHQDIDSGDVSATAIAEEHQAFTESIRDRFRDAHDGVFETSSATAFSETRLMQTPGSVVLDVAEDLDSDFIVVPREEGSEEAVGRAAIYVIEYASQPVLTV | not soluble
MNLESITVVLPTRNEAGNIGAFLASLPQAVHLIVVDASEDETPDIIQRERPARTQVLRRRSTITQARQLGAEAALTDWLLFTDADIVFPDGYFDALERVMDAAVVYGPKLSRDRFAAYYRWFGYGQQCSHWLGIPAATGSNLLVRKDALIAVGGFDPALVCNEDSELVWRIKRAGYRIRFEPSLPVYARDHRRLDSGLWRKTCHSVFRCALLYWDLMPARWRGADWGYWSPQQSGRAPGVSRVELEHHHHHH | not soluble
MRGGVESTSTACATGLHCIGNSFRSIRYGDSRRALAGAVECALNPIALAGFDRMRALARGDQPNISRPFDKKRAGFVMSEGVGLVFMERLEDAQARGAQILAEVVGYGISSDCYHISTPDPSAIGAVLSMNRAIGNAHLEPKDIGYVNAHATSTPNGDSVEAEAVRQVFPEQNIAVSSVKGHIGHLLGAAGSVEAIATIFAMNDDVLPANRNLEETDEGNGLNLLRENQKWSDVSGNKSRISICNSFGFGATNASLILKQF | not soluble
MGSDKIHHHHHHMAFTPFPPRQPTASARLPLTLMTLDDWALATITGADSEKYMQGQVTADVSQMAEDQHLLAAHCDAKGKMWSNLRLFRDGDGFAWIERRSVREPQLTELKKYAVFSKVTIAPDDERVLLGVAGFQARAALANLFSELPSKEKQVVKEGATTLLWFEHPAERFLIVTDEATANMLTDKLRGEAELNNSQQWLALNIEAGFPVIDAANSGQFIPQATNLQALGGISFKKGCYTGQEMVARAKFRGANKRALWLLAGSASRLPEAGEDLELKMGENWRRTGTVLAAVKLEDGQVVVQVVMNNDMEPDSIFRVRDDANTLHIEPLPYSLEE | soluble
DFDFEGNLALFDKAAVFEEIDTYERRSGTRSRGIPNERPTRYRHDENILESEPIVYRRIIVPHNVSKEFCTDSGLVVPSISYELHKKLLSVAEKHGLTLERRLEMTGVCASQMALTLLGGPNRLNPKNVHQRPTVALLCGPHVKGAQGISCGRHLANHDVQVILFLPNFVKMLESITNELSLFSKTQGQQVSSLKDLPTSPVDLVINCLDCPENVFLRDQPWYKAAVAWANQNRAPVLSIDPPVHEVEQGIDAKWSLALGLPLPLGEHAGRIYLCDIGIPQQVFQEVGINYHSPFGCKFVIPLHSA | soluble
QTFGHGQARAFVLSPVMPVWDQGAFAGPLIEHFIRSGHQVTVFDSLSLPAVPDECFSGFAERWADALEPWGVPDVLVGVALGGALAQALAGISFLSVTPALLLLSSPSKADALLDARLGRMADLAEQGHVRQAKRLLDELVLPEGQAHAEQDRFDTETDALLAPQGRRLVRGFRLLDGVNVSERLCDYEGRVLSVFGGKSQLVGADHVLRTKGSNQHS | not soluble
MRILVTNDDGIQSKGIIVLAELLSEEHEVFVVAPDKERSATGHSITIHVPLWMKKVFISERVVAYSTTGTPADCVKLAYNVVMDKRVDLIVSGVNRGPNMGMDILHSGTVSGAMEGAMMNIPSIAISSANYESPDFEGAARFLIDFLKEFDFSLLDPFTMLNINVPAGEIKGWRFTRQSRRRWNDYFEERVSPFGEKYYWMMGEVIEDDDRDDVDYKAVREGYVSITPIHPFLTNEQCLKKLREVYD | soluble
MAGDKGGGDGERRLRQPIVVVLGHVDHGKTTLLDKIRRTAVAAKEAGGITQHIGASIVPADVIEKIAEPLKKVIPVKLVIPGLLFIDTPGHELFSNLRRRGGSVADFAILVVDIMEGFKPQTYEALELLKERRVPFLIAANKIDRIPGWKPNPDAPFIETIRRQDPKVREILEQRVYEIVGKMYEAGLPAELFTRIKDFRRKIAIVPVSARTGEGIPELLAVLAGLTQTYLKERLRYAEGPAKGVVLEVKEMQGFGTVVDAVIYDGVLKKEDIIVVGGREGPIVTRVRALLMPAPLQDIRSREARFVQVDRVYAAAGVRIAAPGLDDVIAGSPIYAAESEEEARKLMEAVQREIEELRFRTENIGVVVKADTLGTLEALVEALRRRGVPVRLADIGPVSRSDVLDAAVTRKIDPYLGVVLAFNVKVLPEAEEEASRAGVKIFRESMIYKLIEDYEEWVKKEKEAERLKALNSLIRPGKFRILPGYVFRRSDPAIVGVEVLGGVIRPGYPVMDSQGRELGRIMAIKDRDRSLEEARLGAAVAVSIQGRILIGRHANEGDILYTNVPAQHAYKILTEFKDLVSKDELDVLREIAEIKRRAADHEYNKVLLRLKIKRVSQ | soluble
GPLGSKEQGVVRKAGWLFFKPLVTLQKERKLELVARRKWKQYWVTLKGCTLLFYETYGKNSTEQNSAPRCALFAEDSIVQSVPEHPKKEHVFCLSNSCGDVYLFQATSQTDLENWVTAIHSACASLFAKKHGKEDTVRLLKSQTRSLLQKIDMDSKMKKMAELQLSVVSDPKNRKAIENQIRQWEQNLEKFHMDLFRMRCYLASLQGGELPNPKSLLAATSRPSKLALGRLGVLSVSSFHALVCSRDDSTLRKRTLSLTQRGK | soluble
MGHHHHHHSHMACLNPVPKLYRSVIEDVIEGVRNLFAEEGIEEQVLKDLKQLWETKVLQSKATEDFFRNSIQSPLFTLQLPHSLHQTLQSSTASLVIPAGRTLPSFTTAELGTSNSSANFTFPGYPIHVPAGVTLQTVSGHLYKVNVPIMVTETSGRAGILQHPIQQVFQQLGQPSVIQTSVPQLNPWSLQATTEKSQRIETVLQQPAILPSGPVDRKHLENATSDILVSPGNEHKIVPEALLCHQESSHYISLPGVVFSPQVSQTNSD | not soluble
KEKVKEPVKHLNSKNFDEFITKNKIVVVDFWAEWCAPCLILAPVIEELANDYPQVAFGKLNTEESQDIAMRYGIMSLPTIMFFKNGELVDQILGAVPREEIEVRLKSLLE | soluble
MSGAAAASAAGYDRHITIFSPEGRLYQVEYAFKATNQTNINSLAVRGKDCTVVISQKKVPDKLLDPTTVSYIFCISRTIGMVVNGPIPDARNAALRAKAEAAEFRYKYGYDMPCDVLAKRMANLSQIYTQRAYMRPLGVILTFVSVDEELGPSIYKTDPAGYYVGYKATATGPKQQEITTNLENHFKKSKIDHINEESWEKVVEFAITHMIDALGTEFSKNDLEVGVATKDKFFTLSAENIEERLVAIAEQD | soluble
